The values that follow come from paper PMC4110014.

Test [1] addresses Caldendrin-C-terminus (Caldendrin-Ct, residues 137–298) (UniProt O88751). Description: SPR; Biacore X-100, CM5 chip, ligand amine-coupled, 25°C, flow 10 µl/min; running buffer with 1 mM Mg2+/500 µM Ca2+ (column 'Ca2+'); molar binding activity deduced from the dissociation phase.
The target is the same in test [2]. The experiment in a line: SPR; Biacore X-100, CM5 chip, ligand amine-coupled, 25°C, flow 10 µl/min; running buffer with 1 mM Mg2+/1 mM EGTA (column 'EGTA'); molar binding activity deduced from the dissociation phase.
Test [3] addresses Caldendrin full length (UniProt O88751). Description: dynamic light scattering; Zetasizer Nano S, 25°C, 50 mM Tris, 100 mM KCl, Mg2+ with EGTA or with 50 µM Ca2+; monomer to dimer.
For test [4] the target is unchanged. Description: SPR; Biacore X-100, CM5 chip, ligand amine-coupled, 25°C, flow 10 µl/min; running buffer with 1 mM Mg2+/500 µM Ca2+ (column 'Ca2+'); molar binding activity deduced from the dissociation phase. On the technique in general: Surface plasmon resonance follows binding to a sensor surface in real time, without labels.
The target is the same in test [5]. Description: SPR; Biacore X-100, CM5 chip, ligand amine-coupled, 25°C, flow 10 µl/min; running buffer with 1 mM Mg2+/1 mM EGTA (column 'EGTA'); molar binding activity deduced from the dissociation phase.
Test [6] has the same target. The experiment in a line: cross-linking + SEC; protein incubated with 0.01% glutaraldehyde, then Superdex 75 gel filtration. On the technique in general: Size exclusion chromatography separates by hydrodynamic size, large species first.
Test [7] has the same target. The experiment in a line: SEC; Superdex 75, ÄKTA FPLC, 50 mM Tris, 100 mM KCl, 500 µM Mg2+ with 200 µM EGTA or 100 µM Ca2+; monomer to dimer.

Sequence of Caldendrin-C-terminus (Caldendrin-Ct, residues 137–298), O88751 137-298 (domain or fragment; other documents disagree on this pair) (O88751 137-298): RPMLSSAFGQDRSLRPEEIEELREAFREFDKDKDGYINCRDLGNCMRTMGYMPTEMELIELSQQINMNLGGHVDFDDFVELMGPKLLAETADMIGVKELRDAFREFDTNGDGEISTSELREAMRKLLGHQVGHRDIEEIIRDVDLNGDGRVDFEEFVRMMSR

In the case of “Caldendrin-C-terminus (Caldendrin-Ct, residues 137–298), O88751 137-298 (domain or fragment; other documents disagree on this pair)”, the molar binding activity in test [1] came to 0.0373; in test [2], 0.0541.

The term stoichiometry N denotes the number of molecules, sites or subunits per partner or assembly. On to “Caldendrin full length (from UniProt O88751 1-298) (natural protein)”, for which the stoichiometry N in the test with Caldendrin full length [3], in the test with Caldendrin full length [6] and in the test with Caldendrin full length [7] was 2 each time. Also, the molar binding activity with Caldendrin full length [4] is 0.0757; with Caldendrin full length [5] it was 0.0215.
